Measurements published in patent US20260000597A1 (priority 2018, published 2026).

Target: AchR (Homo sapiens, UniProt P02708)
Test: ELISA of screened peptide phages on AchR versus streptavidin (OD450)
Assay type: binding
Details: absorbance at 450 nm
Procedure: The output phages for the 4th and 5th rounds of biopanning in Example 13-1 were inoculated to E. coli, and plated on the agar plates so as to form 100-200 plaques per plate. The plaques were inoculated on 1 ml of an SB liquid medium containing 50 μg/ml of ampicillin by using a sterile tip, and cultured with shaking at 37° C. for 5 hours, followed by the addition of 30 μl of helper phages, and then cultured at 37° C. and 200 rpm for one day. The culture was centrifuged at 12,000 rpm for 2 minutes to collect supernatant, and 2% BSA was added to the supernatant, and used for phage screening.
In a 96-well ELISA plate, 5 μg/ml AchR or streptavidin was added at 50 μl per well, and left at 4° C. overnight. The next day, the solution in each well was discarded, followed by the addition of 2% BSA, and then blocked at room temperature for 2 hours. After the solution was all discarded, the wells were washed three times with Tris (20 mM, pH7). In addition, 100 μl of each of the phage solutions obtained from the above-prepared plaques was dispensed into wells and left at 30° C. for 1 hour. After the solution in the wells was all discarded, the wells were washed three times with Tris (20 mM, pH 7), and then the HRP-conjugated anti-M13 antibody diluted 1:2,000 was added at 100 μl per well, followed by culture at 30° C. for 1 hour. After the wells were washed three times with Tris (20 mM, pH7), 100 μl of tetramethylbenzidine was added to each well to induce a color development reaction, and then the reaction was stopped by the addition of 100 μl of 1M H2SO4, and the absorbance at 450 nm (OD450) was measured. The measured absorbance was converted into a ratio of AchR absorbance to streptavidin absorbance (AchR signal/streptavidin signal), and the results are shown in FIGS. 14 to 16.

[1] = phage ELISA, 5 μg/ml AchR, 4th and 5th round biopanning phages
[2] = ELISA of selected 11-mer (L2) peptide phages on AchR, Spep-2 positive control

Chain of AchR (P02708 21-457): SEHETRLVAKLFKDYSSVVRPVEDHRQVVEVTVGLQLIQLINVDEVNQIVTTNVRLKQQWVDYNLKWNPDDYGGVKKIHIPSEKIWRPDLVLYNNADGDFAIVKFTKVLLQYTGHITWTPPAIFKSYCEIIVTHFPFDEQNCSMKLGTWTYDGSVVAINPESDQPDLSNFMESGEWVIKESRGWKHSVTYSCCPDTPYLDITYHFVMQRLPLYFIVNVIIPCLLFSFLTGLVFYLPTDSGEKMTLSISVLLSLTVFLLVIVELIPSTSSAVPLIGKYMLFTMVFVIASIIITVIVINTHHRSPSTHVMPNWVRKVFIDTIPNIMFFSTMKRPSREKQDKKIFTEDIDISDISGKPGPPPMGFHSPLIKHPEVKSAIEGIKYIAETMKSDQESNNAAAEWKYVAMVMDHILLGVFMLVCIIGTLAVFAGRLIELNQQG

Substance	OD [1]	OD [2]
GGGRKKRRQRR [Peptide L2-202, reference compound]	0.314	–
GGGRKKRRQRRRGG [Peptide L3-201, reference compound]	0.315	–
GGGRRRRRRRR [Peptide L2-204, reference compound]	0.311	–
GGRKKRRQRRR [Peptide L2-203, reference compound]	0.302	–
GGRKKRRQRRRGGG [Peptide L3-202, reference compound]	0.301	–
KAKKIRQR [Peptide L1-1]	0.693	–
KAKRDYLR [Peptide L1-145]	0.54	–
KAKRGHFK [Peptide L1-68]	0.55	–
KARKNSIR [Peptide L1-170]	0.642	–
KARKQEVR [Peptide L1-188]	0.618	–
KARRNSLK [Peptide L1-175]	0.621	–
KARRQEDK [Peptide L1-14]	0.755	–
KARRVGTK [Peptide L1-143]	0.416	–
KCKKDNDK [Peptide L1-184]	0.593	–
KCKKMTER [Peptide L1-37]	0.524	–
KCRKTMGR [Peptide L1-123]	0.409	–
KDKKMPQR [Peptide L1-185]	0.55	–
KDKKQWGR [Peptide L1-114]	0.42	–
KDKKTPCK [Peptide L1-193]	0.588	–
KDKRPECK [Peptide L1-133]	0.504	–
KDKRWANR [Peptide L1-77]	0.636	–
KDRKGVYK [Peptide L1-111]	0.608	–
KDRKVNSR [Peptide L1-97]	0.546	–
KEKKLVWK [Peptide L1-174]	0.596	–
KEKRAVHK [Peptide L1-48]	0.519	–
KEKRLYAR [Peptide L1-149]	0.34	–

Substance	OD [1]	OD [2]
KERKASAK [Peptide L1-63]	0.618	–
KERKGAVR [Peptide L1-100]	0.737	–
KERKHEAK [Peptide L1-62]	0.633	–
KERKLWWK [Peptide L1-171]	0.583	–
KFKKHGVK [Peptide L1-21]	0.65	–
KFKKSAPR [Peptide L1-136]	0.392	–
KFKRTEGR [Peptide L1-19]	0.575	–
KFRKGPYR [Peptide L1-135]	0.479	–
KFRKHVCK [Peptide L1-116]	0.492	–
KFRRQSTR [Peptide L1-139]	0.456	–
KGKKLSQR [Peptide L1-75]	0.581	–
KGKKYYQK [Peptide L1-105]	0.507	–
KGKRDSNK [Peptide L1-51]	0.66	–
KGKRTGCK [Peptide L1-126]	0.362	–
KHKKLNQR [Peptide L1-7]	0.68	–
KHKKQNVR [Peptide L1-18]	0.627	–
KHKRTAQR [Peptide L1-78]	0.642	–
KIKKAARR [Peptide L1-35]	0.556	–
KIKKLSQK [Peptide L1-168]	0.588	–
KIKKYYWK [Peptide L1-129]	0.421	–
KIKRDLYK [Peptide L1-90]	0.439	–
KIKRNVFK [Peptide L1-160]	0.55	–
KIRRVTNK [Peptide L1-162]	0.668	–
KKRKGSAK [Peptide L1-2]	0.68	–
KKRKSLLR [Peptide L1-159]	0.593	–
KLKKFPVR [Peptide L1-4]	0.696	–

Substance	OD [1]	OD [2]
KLKRAMLK [Peptide L1-169]	0.636	–
KLKRRSRR [Peptide L1-16]	0.62	–
KLRKQKLR [Peptide L1-43]	0.601	–
KMRKFYSK [Peptide L1-189]	0.616	–
KMRKGWDK [Peptide L1-138]	0.373	–
KMRKHDVR [Peptide L1-74]	0.649	–
KMRRAQGR [Peptide L1-34]	0.634	–
KMRRIMYK [Peptide L1-64]	0.589	–
KMRRVAPR [Peptide L1-176]	0.479	–
KMRRWWLK [Peptide L1-190]	0.644	–
KNKKCVGR [Peptide L1-88]	0.562	–
KNKRTPVK [Peptide L1-86]	0.551	–
KNKRWVFK [Peptide L1-141]	0.505	–
KNRKNLYR [Peptide L1-36]	0.553	–
KNRRADCR [Peptide L1-140]	0.381	–
KPKKGGWK [Peptide L1-148]	0.426	–
KPKKPPAR [Peptide L1-84]	0.576	–
KPKRDQSR [Peptide L1-113]	0.526	–
KPKREMHK [Peptide L1-79]	0.583	–
KPKRSAPR [Peptide L1-125]	0.345	–
KPRKIQGR [Peptide L1-137]	0.458	–
KPRRPDTR [Peptide L1-109]	0.542	–
KQKKTGFR [Peptide L1-55]	0.585	–
KQKRQWAR [Peptide L1-191]	0.649	–
KQRKPHGR [Peptide L1-67]	0.593	–
KRKKDWWR [Peptide L1-10]	0.621	–

Substance	OD [1]	OD [2]
KRRRFRWK [Peptide L1-40]	0.424	–
KSKRHHEK [Peptide L1-69]	0.474	–
KSKRPEGR [Peptide L1-122]	0.352	–
KSRKHCNR [Peptide L1-70]	0.668	–
KSRKWGWR [Peptide L1-39]	0.509	–
KSRRAVFR [Peptide L1-151]	0.479	–
KSRRMWGR [Peptide L1-183]	0.605	–
KSRRSAGK [Peptide L1-73]	0.644	–
KTKKAAER [Peptide L1-178]	0.625	–
KTKKIHSK [Peptide L1-22]	0.732	–
KTKKLYEK [Peptide L1-25]	0.709	–
KTKRGSLK [Peptide L1-101]	0.599	–
KTKRMLAK [Peptide L1-47]	0.54	–
KTKRVDPK [Peptide L1-102]	0.507	–
KTRKIVMK [Peptide L1-199]	0.596	–
KTRKQDHR [Peptide L1-172]	0.631	–
KTRRSACR [Peptide L1-134]	0.365	–
KTRRVDLR [Peptide L1-38]	0.514	–
KVKKIYYR [Peptide L1-144]	0.503	–
KVKRLPYR [Peptide L1-146]	0.362	–
KVKRLWNR [Peptide L1-110]	0.422	–
KVKRVWGR [Peptide L1-163]	0.618	–
KVRKSLWK [Peptide L1-52]	0.56	–
KVRRVFLK [Peptide L1-132]	0.541	–
KWKKMMER [Peptide L1-81]	0.63	–
KWKRFSQR [Peptide L1-197]	0.631	–

Substance	OD [1]	OD [2]
KWKRNCTK [Peptide L1-65]	0.585	–
KWRKRRIK [Peptide L1-46]	0.637	–
KWRRAFGR [Peptide L1-87]	0.538	–
KWRREGFK [Peptide L1-12]	0.691	–
KWRRELPR [Peptide L1-182]	0.585	–
KWRREQFR [Peptide L1-76]	0.588	–
KWRRNGQR [Peptide L1-98]	0.54	–
KYKKQHTK [Peptide L1-41]	0.613	–
KYKKSFTK [Peptide L1-198]	0.63	–
KYKREEYR [Peptide L1-161]	0.474	–
KYRRNLVR [Peptide L1-56]	0.468	–
L2-1 (EDYKYRRQNYK; AchR binding peptide) [Peptide L2-1]	–	0.705
L2-2 (GIWKFRRNQCK; AchR binding peptide) [Peptide L2-2]	–	0.749
L2-3 (SPVRWKRLCLR; AchR binding peptide) [Peptide L2-3]	–	0.796
L2-4 (ECYRNRKAYCR; AchR binding peptide) [Peptide L2-4]	–	0.757
L2-5 (TQQRLKRVMEK; AchR binding peptide) [Peptide L2-5]	–	0.752
L2-6 (PELKCKRMIGR; AchR binding peptide) [Peptide L2-6]	–	0.78
L2-7 (WQMKTKKEIWK; AchR binding peptide) [Peptide L2-7]	–	0.753
L2-8 (FGHRGKKEWAR; AchR binding peptide) [Peptide L2-8]	–	0.739
L2-9 (ATCKPKRPWYK; AchR binding peptide) [Peptide L2-9]	–	0.721
L2-10 (TSQKVRKMEAK; AchR binding peptide) [Peptide L2-10]	–	0.803
L2-11 (GIPKYRRGCSR; AchR binding peptide) [Peptide L2-11]	–	0.791
